Assay results from paper PMC3893532.

B1: seipin: N88S (protein)
parent chain: MVNDPPVPALLWAQEVGQVLAGRARRLLLQFGVLFCTILLLLWVSVFLYGSFYYSYMPTVSHLSPVHFYYRTDCDSSTTSLCSFPVANVSLTKGGRDRVLMYGQPYRVTLELELPESPVNQDLGMFLVTISCYTRGGRIISTSSRSVMLHYRSDLLQMLDTLVFSSLLLFGFAEQKQLLEVELYADYRENSYVPTTGAIIEIHSKRIQLYGAYLRIHAHFTGLRYLLYNFPMTCAFIGVASNFTFLSVIVLFSYMQWVWGGIWPRHRFSLQVNIRKRDNSRKEVQRRISAHQPGPEGQEESTPQSDVTEDGESPEDPSGTEGQLSEEEKPDQQPLSGEEELEPEASDGSGSWEDAALLTEANLPAPAPASASAPVLETLGSSEPAGGALRQRPTCSSS
B2: seipin: S90L (protein)
parent chain: MVNDPPVPALLWAQEVGQVLAGRARRLLLQFGVLFCTILLLLWVSVFLYGSFYYSYMPTVSHLSPVHFYYRTDCDSSTTSLCSFPVANVSLTKGGRDRVLMYGQPYRVTLELELPESPVNQDLGMFLVTISCYTRGGRIISTSSRSVMLHYRSDLLQMLDTLVFSSLLLFGFAEQKQLLEVELYADYRENSYVPTTGAIIEIHSKRIQLYGAYLRIHAHFTGLRYLLYNFPMTCAFIGVASNFTFLSVIVLFSYMQWVWGGIWPRHRFSLQVNIRKRDNSRKEVQRRISAHQPGPEGQEESTPQSDVTEDGESPEDPSGTEGQLSEEEKPDQQPLSGEEELEPEASDGSGSWEDAALLTEANLPAPAPASASAPVLETLGSSEPAGGALRQRPTCSSS

Assay: confocal immunofluorescence, transfected hippocampal neurons
Settings: glycan lost; control: wild-type seipin

Protein | localisation_or_trafficking
B1 | changes
B2 | changes
